The values that follow are results of earlier work, collected in doi:10.1101/2021.06.28.450170.

One series addresses Cys797 (UniProt position 797, LMPFGCLLDYV). Put plainly: chemical modification.
A further series has as its target Cys442 (UniProt position 442, FMEHGCLSDYL).
For the next series, the target named is Cys481 (UniProt position 481, YMANGCLLNYL).

Consider “Epidermal growth factor receptor (EGFR) kinase (Homo sapiens)”, for which the pKa (usually the pH at which an ionisable group is half protonated) with Cys797 was 5.5. In the case of “Interleukin-2-inducible T-cell kinase (ITK) (Homo sapiens)”, the pKa in the series with Cys442 is 8.5. For “Bruton's tyrosine kinase (BTK) (Homo sapiens)”, the pKa with Cys481 was 7.7.
